{"source": "paper PMC4923907", "biological_target": "GG-SpaA E269A mutant, residues 35-302 (Lactobacillus rhamnosus GG (ATCC 53103))", "assay": "SEC; size-exclusion chromatography of purified E269A protein, Sephacryl S-200 26/60, 20 mM Tris pH 7.5, 150 mM NaCl, 1 mM EDTA; two forms recovered, trimeric (E1) and monomeric (E2)", "data": [{"substance": "GG-SpaA E269A mutant, residues 35-302 (domain or fragment)", "values": [{"measurement": "stoichiometry N", "value": 3}]}]}
